Source: the nanobody polyreactivity screen of Harvey et al. (2022)

Test: yeast display, Sf9 membrane polyspecificity reagent, FACS + sequencing; frameworks hold sequencing errors
Method in brief: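 Polyreactivity labels are assigned by the sorting gate from which each nanobody was recovered. The gates were low and high (top ~1%), set on anti-HA fluorescence for expression and streptavidin fluorescence for reagent binding. Before sorting, galactose-induced (36–48 hours) yeast display cells were stained for 1 hour at 4 °C with 10% biotinylated, detergent-solubilized Sf9 membrane reagent.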

Sequence	polyreactivity (PSR sort gate)
QVQLVESGGGLVQAGGSLRLSSADSGRIFYRYMVWYRHAPGKERELVAAISGRATRTYYADSVKGRFTISRDNAKKTVYLQMNSLKPEDTAVYYCAKRSYHGGDYWGQGTQVTVSS	high polyreactivity
QVQLVESGGGLVQAGGSLRLSSAGSGRIFQPYAMGWYRQAPGKERELVAAITRRAGSTYYADSVKGRFTISRDNAKNTVYLQMNSLKPEDTAVYYWAARGLYWAYEMEDWGQGTQVTVSS	low polyreactivity
QVQLVESGGGLVQAGGSLRLSSAPSGRTFGVYAMGWYRQAPGKERELVAAISATGGSTYYADSVKGRFTISRDNAKNTVYLQMNSLKPEDTAVYYCARGGTTLYWGQGTQVTVSS	high polyreactivity
QVQLVESGGGLVQAGGSLRLSSASSGFTFNKYAMGRYRQAPGKERELVAAISSSGGSTRYADSVKGRFTISRDNAKNTVYLQMNSLNPEDTAVFYCAVYVTRDSGWLLYDYWGQGTQVTVSS	high polyreactivity
QVQLVESGGGLVQAGGSLRLSSASSGRTFYKYAMGWYRQAPGKERELVAAISRRGGSTYYADSVKGRFTISRDNAKNTVYLQMNSLKPEDSAVYYCAAGGSVAFYYWGQGTQVTVSS	high polyreactivity
QVQLVESGGGLVQAGGSLRLSSASSGSTSWIYAMGWYRPEPGKERELVAAISGRDGSTNYADSVKGRFTISRDNAKNTVYLQMIRVKPEDTAVYDCNATGRSFKRYGGDYWGQGTQVTVSS	high polyreactivity
QVQLVESGGGLVQAGGSLRLSSASTGLIFRWYEMGRYRQPPGKETELVAAISRRGGTTNYADSVKGRFTISRDIAKITVYLQMNSLKPEDTAVYYCAADYQSVGVAEYEYWGQGTQVTVSS	high polyreactivity
QVQLVESGGGLVQAGGSLRLSSGAYGITFWTYAMGWYRQAHGKERELVAAISNGGSTSYADSVKGRFTISRDNAKNTVYLQINILKPEDTAVYYCASDWATHRPWYWCVYYWGQGTQVTVSS	low polyreactivity
QVQLVESGGGLVQAGGSLRLSSPASGRTIRSYAMGSYRQAPGKERELVAAINSSGGSTYYADSVKARFTISRDNAKNTVYLQMNSLKPEDTAVYYCNTDYSSTSPWRAANYWGQGTQVTVSS	high polyreactivity
QVQLVESGGGLVQAGGSLRLSSPASGSIYRKYGMGSYRQAPGKERELVATITSSGGSTYYADSVKGRFSISRDNAKKTVYLQMNSLKPEDTAVYYCAADYYYLPGSYQVRAMYYWGQGTQVTVSS	high polyreactivity
QVQLVESGGGLVQAGGSLRLSWAASGFIFGFYAMGWYRQAPGKERELVADITSSGGSTYYADSVKGRFTISRDNAKNTVYLQMNSLKQEDTAVYYCAADGWLHNFYPGTGLDYWGQGTQVTVSS	low polyreactivity
QVQLVESGGGLVQAGGSLRLSWAASGFTFTPYAMGWYRPAPGKEREFVAAISQRGTSTFYADSVKGRFTISRDNAKHTVYLQMNSLKPEDTAVYYCAKPYRQYTSAYYNTYNYWGQGTEVTVSS	high polyreactivity
QVQLVESGGGLVQAGGSLRLSWAASGLIFSSNAMGWYRQAPGKERDLVAAITRSGGSTYYADSVKGRFTISRDNAKNTVYLQMNSLKPEDTAVYYCAARYSQRGITFYYWGQGTQVTVSS	high polyreactivity
QVQLVESGGGLVQAGGSLRLSWAASGRIFVLNAMGSYRQAPGKERELVAAISTGASTNYADSVKGRFTISRDNAKNTVYLKMNSLTPEATAVYYCAAAPGSSGARTSYILAYDYWGLGTQVTVSS	low polyreactivity
QVQLVESGGGLVQAGGSLRLSWAASGSIFFYYTIGWYRQAPGKERELVAAISVGGSTYYADSVKGRFTISRDNAKNTVYLQMNSLKPEDTAVYYSNAVPAKGFVTVVRYYYWGQGTQVTVSS	low polyreactivity
QVQLVESGGGLVQAGGSLRLSWAASGSTFRLYAMGWYRQAPGKERELVAAITWSGGSTYYADSVKGRFTISRDNAKNTVYLQMNSLKPEDTAVYYCAAHRIGYYLRVSYRGKYDHWGQGTQVTVSS	low polyreactivity
QVQLVESGGGLVQAGGSLRLSWAASGSTLSLYAMGWYRQAPGKERELVAAITSSGGTYYADSVKGRFTISRDNAKNTVYLQMNSLKPEVTAVYYCNAYAKDARSYGYHRVNYWGQGTQVTVSS	high polyreactivity
QVQLVESGGGLVQAGGSLRLTCAACGRIFNKYAMVWYIQAPGKERELVAAINGGGSTNYADSVKGRFTISRDNAKNTDYLQMNSLKAEDTAVYYCSTTPDGEGGYWGQGTQVTVSS	low polyreactivity
QVQLVESGGGLVQAGGSLRLTCAACGRTFYWYSMGWYRKAPGKERELVATITRTGTRTYYADSVKGRFTISRDNAKNTVYLQMNSLKPEDTAVYYCAAGVIRYGGKEEYYYWGLGTQVTVSS	high polyreactivity
QVQLVESGGGLVQAGGSLRLTCAASARIFGYYVMGWSRQAPGKETELVAAIRSSADSTYYADSVKGRFTISRDNAKNTVYLQMNSLKPEDTAVYYCAAQSPAYYTKSYWGQGTQVTVSS	low polyreactivity
QVQLVESGGGLVQAGGSLRLTCAASGFIFEHYAMGWYRQAPGKERELVARISWRGGSTYYADSVKGRFTISRDNAKNTVYFQMNSLKPEDTAVYYCNAQEVVYFGYYPSDYWGQGTQVTVSS	low polyreactivity
QVQLVESGGGLVQAGGSLRLTCAASGFIFQIYAMGWYRQAPGKERELVAAISSGGSTNYADSVKGRFTISRDNAKNTVYLQMNSLKPEDTAVYYCAAATQYWYFYSFKDKSGFRGYYWGQGTQVTVSS	high polyreactivity

Sequence	polyreactivity (PSR sort gate)
QVQLVESGGGLVQAGGSLRLTCAASGFIFRAYAKGWYRQEPGKERELVAAISRSVSRTYYADSVKGRFTISRDNAKNTVYLQMNSLKPEDTAVYYCAADGQLHMDYWGQGTQVTVSS	high polyreactivity
QVQLVESGGGLVQAGGSLRLTCAASGFIFYAYTMRCYRQAPGKERELVAAISRSGGRTYYADSVKGRFTISRDNAKNTVYLQMNRLKPEDTAVYYCAAEYRGVPRVVVDYDYWGQGTQVTVSS	high polyreactivity
QVQLVESGGGLVQAGGSLRLTCAASGFIVKYNAMGWYRQAPGKERELVAAITSTGSTNYADSVKGRFTISRDNAKNTVYFQMISLKPEDNAVYYCAAYWRSRNRFNWGQGTQVTVTS	high polyreactivity
QVQLVESGGGLVQAGGSLRLTCAASGFIYYYNAMGWYRQAPGKERQLVAAISASGDRTYYADSVKGRFTISRDNAKNTVYLQMNSLKPEDTAVYYCAARSQGARYSSRRRFGDYWGQGTQVTVSS	high polyreactivity
QVQLVESGGGLVQAGGSLRLTCAASGFTFARNTMGWYRQAPGKERELVAAISKNGGSTYYADSVKGRFTISRDNAKNTVYLQMNSLTPEDTAVYYCNTYPSKVGRYSVKDYEYGYWGQGTQVTVSS	high polyreactivity
QVQLVESGGGLVQAGGSLRLTCAASGFTFDQYAMGWYRQEPGKERELVAAISFDGSSTYYADSVKGRFTISRDNAKNTVYLQMNSLKPEDTAVYYCNAAVRGYSSLYRYGYWGQGTQVTVSS	high polyreactivity
QVQLVESGGGLVQAGGSLRLTCAASGFTFFYNAMGWYRQAPGKERELVAAISRGGGRTYYADSVKGRFTISRDNAKNTVYLQMNSLKPEDTAVYYCAKEYGGTRGRKLDYWGQGTQVTVSS	high polyreactivity
QVQLVESGGGLVQAGGSLRLTCAASGFTFGEYAMGWYRQAPGKERELVAVITSGGGRTYYADSVKGRFTISRDNAKNNVYLEMNSLNPEDTAAYYCAAQPKPQLERKDDYWGQGTQVTVSS	high polyreactivity
QVQLVESGGGLVQAGGSLRLTCAASGFTFRSYAMGWYRQAPGKERELVADISIRGGGTYYADSVKGRFTISRDNAKNTVYLQRNSLKPEDTAVYYCAAERYKPFLWPRYDYWGQGTQVTVSS	low polyreactivity
QVQLVESGGGLVQAGGSLRLTCAASGFTFYRNTMGWYRQAPGKERELVAAITQRGGSTYYADSVKGRFTISRDNAKNTVYLQMNSLKPEDTAVYYCNRDVKVLYASSHSPYGYDHWGQGTQVTVSS	low polyreactivity
QVQLVESGGGLVQAGGSLRLTCAASGGIFQFYDMGWYRQAPGKERELVAAITSSGGSTYADSVKGRFTISRDNAKYTVYLQMNSLKPEVTAVYYCAASLVWEYAPGWRFKYGYWGQGTQVTVSS	high polyreactivity
QVQLVESGGGLVQAGGSLRLTCAASGGTISVYDMGWYRQAHGNERELVAAIRDRGVSTYYADSVKGRFTISRDTAKNTVYLQMNSLKPEDTAVYYCAAEYFDGSTYSYYYWGQGTQVTVSS	high polyreactivity
QVQLVESGGGLVQAGGSLRLTCAASGIIFKQNVKGWYRKAPGKESELVAAITSRDGTTYYADSVKGRFTISRDNAKNTVYLQMNSLKPEDTAVYYCATLFKSGSYKYGYWGQGTQVTVSS	high polyreactivity
QVQLVESGGGLVQAGGSLRLTCAASGIIFRGYVMAWYRQAPGKERELVAAISTSGGRTSYADSVKGRFTISRDNAKNTVYLQMNSLKPEDTAVYYCKTRVTGNRLGYYYWGQGTQVTVSS	high polyreactivity
QVQLVESGGGLVQAGGSLRLTCAASGITFGRNVMGWYRQAPGKEMELVATISGSAGYTYYADSVKGRFTISRDYAKNTVYFQMNSLKPEDTSVYYCAARQRKARQIVLLDYWGQGTKVTVSS	high polyreactivity
QVQLVESGGGLVQAGGSLRLTCAASGITFGSYAMGWYRQAPGKERELVAAITWRDGSTYYADSVKGRFTISRDNAKNTVYLQMYSLKPEDTAVYYCAAYLGLRYVGDVSDTWRYDYWGQGTQVTVSS	low polyreactivity
QVQLVESGGGLVQAGGSLRLTCAASGITFLHYAMGWYRQAPGKERELVATISRRGGSTYYADSVKGRFTNSRDNAKYTVYLQLNSLKPEDTAVYYCAADSYYLRHYSAGYYFKRYYWGQGTQVTVSS	high polyreactivity
QVQLVESGGGLVQAGGSLRLTCAASGITFTQNAMGWYRQAPGKERELVAAISRSGTITYYADSVKGRFTISRDHAKNTVYLQMNSLKPEDTAVYYCNKLRPQRSWEYDYWGQGTQVTVSS	high polyreactivity
QVQLVESGGGLVQAGGSLRLTCAASGITFYDNAMGWYRQAPGKERELVAGISYDGDSTYADSVKGRFTNSRDNAKNTVYLQMNSLKPEDTAVYYCAADSSGEYPGGYWGQGTQVTVSS	low polyreactivity
QVQLVESGGGLVQAGGSLRLTCAASGITLGFYAMGWYRQAPGKERELVAAISGRGGSTYYADSVKGRFTISRDNAKNTVYLKMNSLKPEDTPVYYCNALGYYQLVTPFYYWGQGTQVTVSS	high polyreactivity
QVQLVESGGGLVQAGGSLRLTCAASGLTFDSNVMGWYREAPGKERELVAANTYSGRTYYADSEKGRFTISRDNAKNTVYLQMNSLKPEDTAVYYCAARNLAYTRKGYYYWGQGTQVTVSS	high polyreactivity
